US20210032299A1 (Eli Lilly, published 2021)
Starred links: 1 amine or outer side, 2 acyl side, 3 side chain; linkers in the order of their positions; H or OH if unused. Non-standard residues stand in square brackets, D forms with d. Groups on a side chain read outwards from the residue. No end group written: not given here. *: point of attachment. C20 diacid = O=C(O)CCCCCCCCCCCCCCCCCCC(=O)*; γGlu = O=C(O)[C@H](CCC(=O)[*:2])N[*:1]; αMeL = CC(C)C[C@](C)(N)C(=O)O; AEEA = NCCOCCOCC(=O)O; Aib = CC(C)(N)C(=O)O

B1: Example 68 (peptide)
peptide: Y[Aib]EGTFISDYSI[αMeL]LDKK([AEEA-AEEA-γGlu-C20 diacid])HQ[Aib]DFVEYLLEAGPSSGAPPPS-NH2
modifications: N-terminus assumed
SMILES: CC[C@H](C)[C@H](NC(=O)[C@H](Cc1ccccc1)NC(=O)[C@@H](NC(=O)CNC(=O)[C@H](CCC(=O)O)NC(=O)C(C)(C)NC(=O)[C@@H](N)Cc1ccc(O)cc1)[C@@H](C)O)C(=O)N[C@@H](CO)C(=O)N[C@@H](CC(=O)O)C(=O)N[C@@H](Cc1ccc(O)cc1)C(=O)N[C@@H](CO)C(=O)N[C@H](C(=O)N[C@@](C)(CC(C)C)C(=O)N[C@@H](CC(C)C)C(=O)N[C@@H](CC(=O)O)C(=O)N[C@@H](CCCCN)C(=O)N[C@@H](CCCCNC(=O)COCCOCCNC(=O)COCCOCCNC(=O)CC[C@H](NC(=O)CCCCCCCCCCCCCCCCCCC(=O)O)C(=O)O)C(=O)N[C@@H](Cc1c[nH]cn1)C(=O)N[C@@H](CCC(N)=O)C(=O)NC(C)(C)C(=O)N[C@@H](CC(=O)O)C(=O)N[C@@H](Cc1ccccc1)C(=O)N[C@H](C(=O)N[C@@H](CCC(=O)O)C(=O)N[C@@H](Cc1ccc(O)cc1)C(=O)N[C@@H](CC(C)C)C(=O)N[C@@H](CC(C)C)C(=O)N[C@@H](CCC(=O)O)C(=O)N[C@@H](C)C(=O)NCC(=O)N1CCC[C@H]1C(=O)N[C@@H](CO)C(=O)N[C@@H](CO)C(=O)NCC(=O)N[C@@H](C)C(=O)N1CCC[C@H]1C(=O)N1CCC[C@H]1C(=O)N1CCC[C@H]1C(=O)N[C@@H](CO)C(N)=O)C(C)C)[C@@H](C)CC
B2: Example 69 (peptide)
peptide: Y[Aib]EGTFISDYSI[αMeL]LDKK([AEEA-AEEA-γGlu-C20 diacid])HQ[Aib]DFVEYLLEGGPSSGAPPPS-NH2
modifications: N-terminus assumed
SMILES: CC[C@H](C)[C@H](NC(=O)[C@H](Cc1ccccc1)NC(=O)[C@@H](NC(=O)CNC(=O)[C@H](CCC(=O)O)NC(=O)C(C)(C)NC(=O)[C@@H](N)Cc1ccc(O)cc1)[C@@H](C)O)C(=O)N[C@@H](CO)C(=O)N[C@@H](CC(=O)O)C(=O)N[C@@H](Cc1ccc(O)cc1)C(=O)N[C@@H](CO)C(=O)N[C@H](C(=O)N[C@@](C)(CC(C)C)C(=O)N[C@@H](CC(C)C)C(=O)N[C@@H](CC(=O)O)C(=O)N[C@@H](CCCCN)C(=O)N[C@@H](CCCCNC(=O)COCCOCCNC(=O)COCCOCCNC(=O)CC[C@H](NC(=O)CCCCCCCCCCCCCCCCCCC(=O)O)C(=O)O)C(=O)N[C@@H](Cc1c[nH]cn1)C(=O)N[C@@H](CCC(N)=O)C(=O)NC(C)(C)C(=O)N[C@@H](CC(=O)O)C(=O)N[C@@H](Cc1ccccc1)C(=O)N[C@H](C(=O)N[C@@H](CCC(=O)O)C(=O)N[C@@H](Cc1ccc(O)cc1)C(=O)N[C@@H](CC(C)C)C(=O)N[C@@H](CC(C)C)C(=O)N[C@@H](CCC(=O)O)C(=O)NCC(=O)NCC(=O)N1CCC[C@H]1C(=O)N[C@@H](CO)C(=O)N[C@@H](CO)C(=O)NCC(=O)N[C@@H](C)C(=O)N1CCC[C@H]1C(=O)N1CCC[C@H]1C(=O)N1CCC[C@H]1C(=O)N[C@@H](CO)C(N)=O)C(C)C)[C@@H](C)CC

Columns and labels:
Assay in all cases: cell-based or functional assay
human glucagon receptor = human glucagon receptor (human, UniProt P47871 26-477)
Chain of human glucagon receptor (P47871 26-477): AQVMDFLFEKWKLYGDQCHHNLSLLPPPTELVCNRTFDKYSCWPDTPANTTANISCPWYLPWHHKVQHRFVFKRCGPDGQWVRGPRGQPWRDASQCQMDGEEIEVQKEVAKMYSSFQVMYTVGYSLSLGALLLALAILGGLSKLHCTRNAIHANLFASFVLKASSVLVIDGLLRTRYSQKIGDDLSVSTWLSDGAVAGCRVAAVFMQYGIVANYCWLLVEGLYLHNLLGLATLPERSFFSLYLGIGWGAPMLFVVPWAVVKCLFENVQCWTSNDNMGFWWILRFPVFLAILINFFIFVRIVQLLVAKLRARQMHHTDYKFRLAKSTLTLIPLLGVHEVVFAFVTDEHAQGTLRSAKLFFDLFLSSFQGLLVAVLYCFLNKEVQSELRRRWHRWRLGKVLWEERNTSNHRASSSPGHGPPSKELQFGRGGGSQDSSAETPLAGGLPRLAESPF

[1] = target: T1, human glucose-dependent insulinotropic peptide receptor (human, UniProt P48546 22-466)
T1 sequence (looked up): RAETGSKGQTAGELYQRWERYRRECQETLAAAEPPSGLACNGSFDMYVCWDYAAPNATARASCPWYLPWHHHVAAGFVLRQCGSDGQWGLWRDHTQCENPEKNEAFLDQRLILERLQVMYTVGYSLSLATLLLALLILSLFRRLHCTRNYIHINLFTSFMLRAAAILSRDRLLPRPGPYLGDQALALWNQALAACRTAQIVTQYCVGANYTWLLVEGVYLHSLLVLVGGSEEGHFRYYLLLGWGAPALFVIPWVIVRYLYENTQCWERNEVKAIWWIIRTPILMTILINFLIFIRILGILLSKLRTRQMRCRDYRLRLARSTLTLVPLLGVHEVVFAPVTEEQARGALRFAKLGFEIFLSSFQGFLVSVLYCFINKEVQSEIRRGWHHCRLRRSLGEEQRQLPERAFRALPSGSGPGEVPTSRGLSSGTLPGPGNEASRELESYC

human GLP-1 receptor = human GLP-1 receptor (human, UniProt P43220 24-463)

| Binder | hGcgR cAMP Rel EC50 (human glucagon receptor) | hGIPR cAMP Rel EC50 [1] | hGLP1R cAMP Rel EC50 (human GLP-1 receptor) |
| --- | --- | --- | --- |
| B1 | 3030 nM | 0.0768 nM | > 5000 nM |
| B2 | 803 nM | 0.0302 nM | > 5000 nM |
